In test [1] the target is T1, DNA topoisomerase IIIα (UniProt Q13472).
T1 sequence: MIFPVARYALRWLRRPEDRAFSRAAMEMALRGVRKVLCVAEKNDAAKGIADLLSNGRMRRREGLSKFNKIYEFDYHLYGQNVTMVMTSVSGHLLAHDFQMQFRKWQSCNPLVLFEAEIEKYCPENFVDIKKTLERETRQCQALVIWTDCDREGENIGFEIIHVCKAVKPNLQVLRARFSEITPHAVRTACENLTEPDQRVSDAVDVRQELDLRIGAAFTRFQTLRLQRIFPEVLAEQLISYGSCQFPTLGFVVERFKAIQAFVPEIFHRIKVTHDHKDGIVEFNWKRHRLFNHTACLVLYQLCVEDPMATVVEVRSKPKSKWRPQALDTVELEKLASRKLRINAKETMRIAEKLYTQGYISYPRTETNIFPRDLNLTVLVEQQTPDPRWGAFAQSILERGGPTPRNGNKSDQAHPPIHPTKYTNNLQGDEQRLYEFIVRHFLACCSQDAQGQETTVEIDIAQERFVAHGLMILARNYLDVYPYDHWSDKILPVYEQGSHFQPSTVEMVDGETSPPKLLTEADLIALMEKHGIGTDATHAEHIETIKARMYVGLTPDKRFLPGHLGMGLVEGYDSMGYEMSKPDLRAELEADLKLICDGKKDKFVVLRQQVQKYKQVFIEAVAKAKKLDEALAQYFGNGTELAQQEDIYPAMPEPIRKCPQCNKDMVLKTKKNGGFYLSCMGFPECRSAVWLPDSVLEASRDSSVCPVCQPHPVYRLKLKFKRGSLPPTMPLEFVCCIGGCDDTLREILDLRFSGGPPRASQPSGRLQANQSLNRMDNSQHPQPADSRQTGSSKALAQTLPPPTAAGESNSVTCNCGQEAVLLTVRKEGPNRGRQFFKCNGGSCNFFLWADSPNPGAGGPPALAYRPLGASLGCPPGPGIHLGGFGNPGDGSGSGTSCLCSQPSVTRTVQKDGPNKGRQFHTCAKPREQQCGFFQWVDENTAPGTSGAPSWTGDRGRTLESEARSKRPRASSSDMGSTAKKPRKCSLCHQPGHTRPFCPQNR

Test [2] deals with T1, DNA topoisomerase IIIα. This is another data set of the same source.

As to “BLM (from UniProt P54132 1-1417) (enzyme)”, the TopoIIIα decatenase activity with BLM (33-66 nM) in the presence of RPA (100 nM), against TopoIIIα alone in test [1] came to 1.5 fold.

B1: RMI1 (natural protein)
chain: MNVTSIALRAETWLLAAWHVKVPPMWLEACINWIQEENNNVNLSQAQMNKQVFEQWLLTDLRDLEHPLLPDGILEIPKGELNGFYALQINSLVDVSQPAYSQIQKLRGKNTTNDLVTAEAQVTPKPWEAKPSRMLMLQLTDGIVQIQGMEYQPIPILHSDLPPGTKILIYGNISFRLGVLLLKPENVKVLGGEVDALLEEYAQEKVLARLIGEPDLVVSVIPNNSNENIPRVTDVLDPALGPSDEELLASLDENDELTANNDTSSERCFTTGSSSNTIPTRQSSFEPEFVISPRPKEEPSNLSIHVMDGELDDFSLEEALLLEETVQKEQMETKELQPLTFNRNADRSIERFSHNPNTTNNFSLTCKNGNNNWSEKNVSEQMTNEDKSFGCPSVRDQNRSIFSVHCNVPLAHDFTNKEKNLETDNKIKQTSSSDSHSLNNKILNREVVNYVQKRNSQISNENDCNLQSCSLRSSENSINLSIAMDLYSPPFVYLSVLMASKPKEVTTVKVKAFIVTLTGNLSSSGGIWSITAKVSDGTAYLDVDFVDEILTSLIGFSVPEMKQSKKDPLQYQKFLEGLQKCQRDLIDLCCLMTISFNPSLSKAMVLALQDVNMEHLENLKKRLNK
Turning to B1, in test [2], the TopoIIIα-mediated decatenation of single-stranded catenane with both BLM (17 nM) and RMI1 (75-150 nM) in the presence of RPA (100 nM), against TopoIIIα alone was 30 fold.

For the origin of these results see publication PMC3401101.
